We go through three molecules from article PMC3401474.

Targets include rat HER2 (rHER2) (rat, UniProt P06494 23-654); human HER2 (hHER2) (human, UniProt P04626 23-652); human EphA2 (hEphA2) (human, UniProt P29317 24-537).
Assay in all cases: SPR

Sequence of rat HER2 (rHER2) (P06494 23-654): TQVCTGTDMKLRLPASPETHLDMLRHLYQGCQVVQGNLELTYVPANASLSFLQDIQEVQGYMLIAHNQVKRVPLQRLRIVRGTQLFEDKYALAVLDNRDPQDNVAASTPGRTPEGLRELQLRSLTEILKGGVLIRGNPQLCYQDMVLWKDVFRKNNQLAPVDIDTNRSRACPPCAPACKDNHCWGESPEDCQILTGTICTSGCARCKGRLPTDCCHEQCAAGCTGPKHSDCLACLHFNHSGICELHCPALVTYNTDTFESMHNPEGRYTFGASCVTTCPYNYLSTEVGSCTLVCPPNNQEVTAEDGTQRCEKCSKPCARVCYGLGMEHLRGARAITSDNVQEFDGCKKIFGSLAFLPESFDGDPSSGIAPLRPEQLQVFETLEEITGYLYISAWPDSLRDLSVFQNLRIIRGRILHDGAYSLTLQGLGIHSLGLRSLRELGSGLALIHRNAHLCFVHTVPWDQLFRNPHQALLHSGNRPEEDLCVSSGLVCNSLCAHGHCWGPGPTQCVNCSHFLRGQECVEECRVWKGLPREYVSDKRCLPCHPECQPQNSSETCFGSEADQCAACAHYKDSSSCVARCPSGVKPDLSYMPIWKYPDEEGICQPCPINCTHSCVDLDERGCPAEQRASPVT
Sequence of human EphA2 (hEphA2) (P29317 24-537): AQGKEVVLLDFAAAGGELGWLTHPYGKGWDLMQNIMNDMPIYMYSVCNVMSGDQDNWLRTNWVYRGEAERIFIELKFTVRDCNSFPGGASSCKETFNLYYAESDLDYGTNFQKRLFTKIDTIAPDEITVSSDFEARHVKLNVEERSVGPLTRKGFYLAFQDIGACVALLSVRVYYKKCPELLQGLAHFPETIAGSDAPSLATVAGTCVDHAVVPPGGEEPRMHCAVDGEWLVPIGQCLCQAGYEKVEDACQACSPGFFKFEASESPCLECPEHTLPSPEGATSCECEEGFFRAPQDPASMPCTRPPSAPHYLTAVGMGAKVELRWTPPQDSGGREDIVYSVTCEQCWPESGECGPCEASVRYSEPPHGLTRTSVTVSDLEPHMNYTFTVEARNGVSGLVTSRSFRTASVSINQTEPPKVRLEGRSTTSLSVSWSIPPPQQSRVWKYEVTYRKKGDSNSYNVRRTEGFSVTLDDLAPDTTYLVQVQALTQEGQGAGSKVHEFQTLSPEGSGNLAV

B1: E1 (XNA)
RNA: GGGAGGACGAUGCGGUCCUGUCGUCUGUUCGUCCCCAGACGACUCGCCCGA
modifications: 2'-fluoro C and U (2'-OH A and G)
Regarding B1, the Kd with rat HER2 (rHER2) amounted to 60.8 nM. In other words, the double-digit nanomolar range.

B2: B1 (XNA)
RNA: GGGAGGACGAUGCGGUCUGUUGUGCUUGAUAUGCCCCAGACGACUCGCCCGA
modifications: 2'-fluoro C and U (2'-OH A and G)
B2 displayed a Kd with rat HER2 (rHER2) of 85.2 nM. Further, the binding result with human HER2 (hHER2) and with human EphA2 (hEphA2) was “no binding” in each case.

B3: C1 (XNA)
RNA: GGGAGGACGAUGCGGCUGUCUACCUUCUACUGCCGCAGACGACUCGCCCGA
modifications: 2'-fluoro C and U (2'-OH A and G)
For the molecule B3, binding with rat HER2 (rHER2) was characterised by a dissociation constant (Kd) of 45.8 nM. Further, the binding result in the data set with human HER2 (hHER2) and with human EphA2 (hEphA2) was “no binding” throughout.
